Where a chain is given by its changes, count along the chain named. Like-named read-outs stand apart in the source and are kept apart here. Values belong to the binder of their own block, whether it stands above or below them.
Key:
FcgRIIb [1] = biological target: T1, FcgRIIb (human, UniProt P31994); assay: SPR
T1 chain: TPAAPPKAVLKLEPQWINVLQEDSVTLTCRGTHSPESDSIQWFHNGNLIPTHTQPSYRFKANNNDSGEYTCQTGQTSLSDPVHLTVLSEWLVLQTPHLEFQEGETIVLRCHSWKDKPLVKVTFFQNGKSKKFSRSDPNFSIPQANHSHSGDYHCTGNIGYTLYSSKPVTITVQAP

FcgRIa [2] = biological target: T2, FcgRIa (human, UniProt P12314); assay: SPR
T2 chain: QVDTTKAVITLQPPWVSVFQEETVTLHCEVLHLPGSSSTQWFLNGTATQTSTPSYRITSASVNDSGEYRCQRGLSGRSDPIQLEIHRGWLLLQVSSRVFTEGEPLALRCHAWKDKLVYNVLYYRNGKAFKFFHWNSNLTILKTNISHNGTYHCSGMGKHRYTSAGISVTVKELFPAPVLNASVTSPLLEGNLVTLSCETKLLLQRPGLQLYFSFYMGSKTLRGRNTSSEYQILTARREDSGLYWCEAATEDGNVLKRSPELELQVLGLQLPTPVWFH

FcgRIIaR [3] = biological target: T3, FcgRIIaR (human, UniProt P12318); assay: SPR
T3 chain: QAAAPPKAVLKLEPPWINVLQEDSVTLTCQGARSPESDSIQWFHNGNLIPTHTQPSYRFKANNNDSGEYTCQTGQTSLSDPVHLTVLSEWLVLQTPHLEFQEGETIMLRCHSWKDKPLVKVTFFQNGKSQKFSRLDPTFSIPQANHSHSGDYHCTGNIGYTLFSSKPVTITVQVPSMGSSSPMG

FcgRIIb [4] = biological target: T1, FcgRIIb; assay: SPR
human FcRn = human FcRn (human, UniProt P55899); assay: SPR, pH 6.0, 25C
FcgRIIaR [5] = biological target: T3, FcgRIIaR; assay: SPR
FcgRIIIaV [6] = biological target: T4, FcgRIIIaV (human, UniProt P08637); assay: SPR
FcgRIa [7] = biological target: T2, FcgRIa; assay: SPR
FcgRIa [8] = biological target: T2, FcgRIa; assay: SPR
FcgRIIIaV [9] = biological target: T4, FcgRIIIaV; assay: SPR; remark: listed apart in the source
FcgRIIaH = biological target: T5, FcgRIIaH (human, UniProt P12318); assay: SPR
T5 chain: T3 chain with R134H

FcgRIIb [10] = biological target: T1, FcgRIIb; assay: SPR
FcgRIIaR [11] = biological target: T3, FcgRIIaR; assay: SPR
FcgRIIb [12] = biological target: T1, FcgRIIb; assay: SPR
FcgRIIaR [13] = biological target: T3, FcgRIIaR; assay: SPR
FcgRIa [14] = biological target: T2, FcgRIa; assay: SPR
FcgRIIb [15] = biological target: T1, FcgRIIb; assay: SPR
FcgRIa [16] = biological target: T2, FcgRIa; assay: SPR
FcgRIIaR [17] = biological target: T3, FcgRIIaR; assay: SPR
FcgRIIb [18] = biological target: T1, FcgRIIb; assay: SPR

T4 sequence (P08637 17-208 F176V): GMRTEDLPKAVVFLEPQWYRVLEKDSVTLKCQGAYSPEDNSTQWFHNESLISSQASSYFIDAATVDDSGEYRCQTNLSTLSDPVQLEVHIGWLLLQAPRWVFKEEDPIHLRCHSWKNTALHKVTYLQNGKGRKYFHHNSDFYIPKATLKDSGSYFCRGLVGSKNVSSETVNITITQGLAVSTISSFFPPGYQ

- Kd (FcgRIIb [1]): 19 nM
- Kd (FcgRIa [2]): 7.7 nM
- Kd (FcgRIIaR [3]): 540 nM
B1: IL6R-BP478/IL6R-L (antibody)
chain 1: QVQLQESGPGLVKPSETLSLTCAVSGHSISHDHAWSWVRQPPGEGLEWIGFISYSGITNYNPSLQGRVTISRDNSKNTLYLQMNSLRAEDTAVYYCARSLARTTAMDYWGEGTLVTVSSASTKGPSVFPLAPCSRSTSESTAALGCLVKDYFPEPVTVSWNSGALTSGVHTFPAVLQSSGLYSLSSVVTVPSSSLGTKTYTCNVDHKPSNTKVDKRVESKYGPPCPPCPAPDLLGDDSVFLFPPKPKDTLMISRTPEVTCVVVDVSDEDGEVKFNWYVDGVEVHNAKTKPREEQDNSTYRVVSVLTVLHQDWLNGKEYKCKVSNKALPRPIEKTISKAKGQPREPQVYTLPPSRDELTKNQVSLTCLVKGFYPSDIAVEWESNGQPENNYKTTPPVLDSDGSFFLYSKLTVDKSRWQQGNVFSCSVMHEALHNHYTQESLSLSP
chain 2: not shown

- Kd (FcgRIIb [1]): 35 nM
- Kd (FcgRIa [2]): 7.3 nM
- Kd (FcgRIIaR [3]): 800 nM
B2: IL6R-BP471/IL6R-L (antibody)
chain 1: QVQLQESGPGLVKPSETLSLTCAVSGHSISHDHAWSWVRQPPGEGLEWIGFISYSGITNYNPSLQGRVTISRDNSKNTLYLQMNSLRAEDTAVYYCARSLARTTAMDYWGEGTLVTVSSASTKGPSVFPLAPSSKSTSGGTAALGCLVKDYFPEPVTVSWNSGALTSGVHTFPAVLQSSGLYSLSSVVTVPSSSLGTQTYICNVNHKPSNTKVDKKVEPKSCDKTHTCPPCPAPDLLGDDSVFLFPPKPKDTLMISRTPEVTCVVVDVSDEDGEVKFNWYVDGVEVHNAKTKPREEQDNSTYRVVSVLTVLHQDWLNGKEYKCKVSNKALSRPIEKTISKAKGQPREPQVYTLPPSRDELTKNQVSLTCLVKGFYPSDIAVEWESNGQPENNYKTTPPVLDSDGSFFLYSKLTVDKSRWQQGNVFSCSVMHEALHNHYTQESLSLSP
chain 2: not shown

- Kd (FcgRIIb [4]): 60 nM
B3: IL6R-BP239/IL6R-L (antibody)
chain 1: B2 chain 1 with L236Y, S269Q, K328A, S331P
chain 2: not shown

- Kd (human FcRn): 120 nM
B4: Fv4-P587-LS (antibody)
chain 1: B2 chain 1 with D239G, V266I, S269A, D270E, D298Y, S331P, R332A, M430L, N436S, E441K
chain 2: DIQMTQSPSSLSASVGDSVTITCQASTDISSHLNWYQQKPGKAPELLIYYGSHLLSGVPSRFSGSGSGTDFTFTISSLEAEDAATYYCGQGNRLPYTFGQGTKVEIERTVAAPSVFIFPPSDEQLKSGTASVVCLLNNFYPREAKVQWKVDNALQSGNSQESVTEQDSKDSTYSLSSTLTLSKADYEKHKVYACEVTHQGLSSPVTKSFNRGEC

- Kd (FcgRIIaR [5]): 600 nM
B5: IL6R-BP223/IL6R-L (antibody)
chain 1: B2 chain 1 with D235E, L236Y, D298Y, K328A, S331P
chain 2: not shown

- Kd (FcgRIIb [4]): 40 nM
B6: IL6R-BP228/IL6R-L (antibody)
chain 1: B2 chain 1 with D235E, L236Y, S269Q, D298Y, K328D, S331P
chain 2: not shown

- Kd (FcgRIIIaV [6]): 400 nM
- Kd (FcgRIa [7]): 0.05 nM
- Kd (FcgRIa [8]): 0.067 nM
- Kd (FcgRIIIaV [9]): 3600 nM
- Kd (FcgRIIaH): 860 nM
- Kd (FcgRIIb [10]): 11 nM
- Kd (FcgRIIaR [11]): 2.3 nM
- Kd (FcgRIIb [12]): 8.9 nM
B7: IL6R-BP253/IL6R-L (antibody)
chain 1: B2 chain 1 with D235E, D239G, D240P, S269E, D270H, G273P, D298Y, L330F, S331P, R332A
chain 2: not shown

- Kd (FcgRIIb [4]): 100 nM
B8: IL6R-BP237/IL6R-L (antibody)
chain 1: B2 chain 1 with L236Y, S269Q, K328A, S331P, R332K
chain 2: not shown

- Kd (FcgRIIaR [13]): 490 nM
- Kd (FcgRIa [14]): 10 nM
- Kd (FcgRIIb [15]): 18 nM
B9: IL6R-BP230/IL6R-L (antibody)
chain 1: B2 chain 1 with S331P
chain 2: not shown

- Kd (FcgRIa [16]): 9.1 nM
- Kd (FcgRIIaR [17]): 1500 nM
- Kd (FcgRIIb [18]): 120 nM
B10: IL6R-BP333/IL6R-L (antibody)
chain 1: B2 chain 1 with V266F, D270E, D298Y, S331P, R332A
chain 2: not shown

- Kd (FcgRIa [16]): 15 nM
- Kd (FcgRIIaR [17]): 2200 nM
- Kd (FcgRIIb [18]): 150 nM
B11: IL6R-BP338/IL6R-L (antibody)
chain 1: B2 chain 1 with V266L, D270E, D298Y, S331P, R332A
chain 2: not shown

- Kd (human FcRn): 1500 nM
B12: Fv4-P587 (antibody)
chain 1: B2 chain 1 with D239G, V266I, S269A, D270E, D298Y, S331P, R332A, E441K
chain 2: B4 chain 2

- Kd (human FcRn): 1400 nM
B13: Fv4-IgG1 (antibody)
chain 1: not shown
chain 2: B4 chain 2
